Laboratory results taken from the supplement of paper PMC10567573.
± gives the standard deviation.

Assay: protein stability index of a GFP-peptide fusion (GPS, HEK-293T) (PSI 1-6); higher = more stable
[1] = treatment: DMSO, c terminus: a fixed tail appended
[2] = treatment: MLN4924 1 uM, 8 h, c terminus: a fixed tail appended
[3] = treatment: DMSO, c terminus: native
[4] = treatment: MLN4924 1 uM, 8 h, c terminus: native
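Also: 24-mer peptide tiles fused after GFP, lentivirally expressed, FACS-sorted into six equal bins by GFP/DsRed ratio, decoded by Illumina sequencing, PSI is the read-weighted mean bin number.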

Sequence	protein stability index [1]	protein stability index [2]	protein stability index [3]	protein stability index [4]
DGLDGISVGSYLDTLADDVPGHQT [LURAP1L]	5.12 ± 0.27	4.86 ± 0.22	–	–
IVIWGVLTQKKPFADEKNILHIMV [RIPK4]	3.25 ± 0.88	2.92 ± 0.67	–	–
GSRHPTLVLPLVPELLSTHPFFDT [INTS4]	2.23 ± 0.28	2.31 ± 0.078	–	–
EVFYYSCEYNFVSPSKSFWTRITC [CFHR2]	3.39 ± 0.15	2.31 ± 0.27	–	–
APPLPDSPQPLASSPGPWGLEALA [FCHO1]	4.43 ± 0.16	3.99 ± 0.18	–	–
QLELRAGAERLDALLADEERCLSC [TRADD]	3.98 ± 0.25	4.24 ± 0.18	–	–
CTSVNTIYDNAVQGLRRHEILQWV [LRRC59]	2.3 ± 0.17	2.13 ± 0.2	–	–
TNVVTGHRQSFGTNSDVLAQQFAL [DCAF4]	3.35 ± 0.1	3.43 ± 0.33	–	–
DRVQVERDGLAEDLAALKQRLEEE [PRPH]	5.49 ± 0.16	5.17 ± 0.25	–	–
ETELALVKESGERKVTDSISKSLE [DLC1]	5.56 ± 0.35	5.13 ± 0.44	–	–
ELLVAHAYTRYLGDLSGGQVLKKI [HMOX1]	2.23 ± 0.86	2.32 ± 0.3	–	–
LIALANRFCLPHLVALAEQHAVQE [RHOBTB1]	3.16 ± 0.47	3.33 ± 0.47	–	–
RGQCLLYNWEEERATNHLDQVPSM [SPAG8]	3.13 ± 0.16	3.58 ± 0.42	–	–
WNDAPCDKTFLFICKRPYVPSEP [CD207]	–	–	1.99 ± 0.96	2.13 ± 0.13
FVEYCDVNNDKSISVQELMGCLGV [SMOC2]	2.39 ± 0.86	2.46 ± 0.38	–	–
KEMTQKLEALHLEALCEEDLLLWI [DENND6A]	2.23 ± 0.28	2.26 ± 0.32	–	–
LGSSAASTALERPSFLSQTGHGVS [FCHO1]	4.28 ± 0.45	4.2 ± 0.24	–	–
VPRPGTPQSPPSCRAPPPEARGIR [FCHO1]	4.85 ± 0.42	4.85 ± 0.14	–	–
ESYTKMCDPGMTAFEPEALGNLVE [CAMK2A]	4.1 ± 0.31	4.16 ± 0.33	–	–
RVRVELQEQNGRLQAELAAQEALR [LRRC45]	4.58 ± 0.079	3.98 ± 0.55	–	–

Sequence	protein stability index [1]	protein stability index [2]	protein stability index [3]	protein stability index [4]
FVLAEDGRRCKKCTEGPIDLVFVI [MATN2]	3.06 ± 0.44	2.5 ± 0.31	–	–
SWSALWNITDETPDNCEMFLNFNG [ZER1]	2.61 ± 0.25	2.79 ± 0.23	–	–
LAVLDWNQRAMDLYKALGAQDLTE [SAT2]	2.41 ± 0.24	2.42 ± 0.19	–	–
SYRETRRKEGIVKLKPHEEPLRSE [PTPN9]	4.66 ± 0.079	4.73 ± 0.3	–	–
FLCGRALTSDLYAPMVAGALARLG [SLC25A39]	2.85 ± 0.26	3.02 ± 0.64	–	–
RQNSAPARMLSSNERDSSEPGNFI [CDC25A]	5.54 ± 0.31	5.45 ± 0.14	–	–
RTMAPEKLLKSMPILQGQIDALLE [SNAP91]	2.83 ± 0.16	2.89 ± 0.27	–	–
DQKVPYIFRDNQWVGFDDVESFKT [CHIT1]	3.67 ± 0.18	3.53 ± 0.28	–	–
CVLVDTGRPIPGTSTRYEQPKCDN [SMOC2]	3.79 ± 0.31	3.77 ± 0.22	–	–
FDALDDYEHHYHTLHGNVCSFCKR [ZNF511]	3.83 ± 0.33	4.19 ± 0.41	–	–
QGIYEEYEDIRRENPVGTFHCSMS [PTPN9]	3.84 ± 0.28	3.98 ± 0.26	–	–
GASVRGLHPVQKVILNYPSPWDQE [TRAF3IP2]	3.79 ± 0.33	4.1 ± 0.36	–	–
PFSSVTEEELNFEKGETMEVIEKP [NCK2]	5.38 ± 0.22	5.42 ± 0.28	–	–
DVTSLSSQLPDTPNSMVPSPVET [ISL2]	–	–	4.24 ± 0.1	4.39 ± 0.34
VIVWDGDTTRQVQRISCFQSTVKC [WDR41]	2.31 ± 0.31	2.01 ± 0.11	–	–
GCDPLVKPVGRQACDLQPCPTEPP [ADAMTSL2]	4.2 ± 0.049	4.54 ± 1.2	–	–
QPSGMKEGVKRYEQEHAAIQDKLF [CHCHD6]	4.55 ± 0.12	4.14 ± 0.21	–	–
LEAAEALLTLRNSAQAPPDSISLH [DMRTC1]	4.42 ± 0.18	4.27 ± 0.25	–	–
LSALLQFGVTYLEDYSAEYIIQQG [BCL2L13]	2.9 ± 0.42	2.43 ± 0.55	–	–
